Results on one substance are retold here after publication PMC10504565.

This assay has as its target endogenous POLR2A/RPB1, the largest subunit of RNA pol II, of HepG2 cells (human (endogenous in HepG2)) (UniProt P24928). Description: proximity ligation; fixed HepG2 cells (SHP-1 WT; SHP-1 KO as negative control), anti-SHP-1 and anti-RPB1 antibodies, Duolink In Situ kit; nuclear dots counted in at least 400 nuclei.

Sequence of endogenous SHP-1 of HepG2 cells, P29350 1-595 (natural protein; other documents disagree on this pair) (P29350 whole entry): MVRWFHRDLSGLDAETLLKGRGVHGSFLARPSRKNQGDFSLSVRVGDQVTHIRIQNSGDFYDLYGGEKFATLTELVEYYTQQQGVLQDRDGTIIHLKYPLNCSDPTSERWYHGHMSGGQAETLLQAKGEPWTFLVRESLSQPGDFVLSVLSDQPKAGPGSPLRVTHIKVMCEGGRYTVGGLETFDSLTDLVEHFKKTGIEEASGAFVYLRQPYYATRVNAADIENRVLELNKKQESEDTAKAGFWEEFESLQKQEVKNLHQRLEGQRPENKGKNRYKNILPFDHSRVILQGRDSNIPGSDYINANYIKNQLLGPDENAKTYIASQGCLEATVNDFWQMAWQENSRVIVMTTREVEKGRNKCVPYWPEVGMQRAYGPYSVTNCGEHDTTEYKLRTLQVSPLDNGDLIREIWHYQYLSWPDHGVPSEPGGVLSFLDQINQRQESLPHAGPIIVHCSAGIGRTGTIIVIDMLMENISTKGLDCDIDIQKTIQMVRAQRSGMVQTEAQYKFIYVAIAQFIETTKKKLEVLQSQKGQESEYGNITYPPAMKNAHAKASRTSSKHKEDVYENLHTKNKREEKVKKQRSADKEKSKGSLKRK

In the case of “endogenous SHP-1 of HepG2 cells, P29350 1-595 (natural protein; other documents disagree on this pair)”, the percent of nuclei with PLA dots was 44 % of nuclei.
